The values that follow come from patent US20190177410A1.

No end group written: not given here.

Experiment [1] addresses full-length human APLNR (hAPLNR) (human) (UniProt P35414). Nature of the experiment: cell-based or functional assay.
In experiment [2] the target is human Apelin receptor (hAPLNR) of PathHunter eXpress AGTRL1 CHO-K1 beta-Arrestin cells (human) (UniProt P35414). Nature of the experiment: cell-based or functional assay.
Experiment [3] has as its target full-length human APLNR (hAPLNR) (human) (UniProt P35414). Nature of the experiment: FACS on HEK293/CRE-luc/hAPLNR cells.
Experiment [4] deals with T1, full length cynomolgus APLNR (MfAPLNR) (cynomolgus (Macaca fascicularis)).
T1 sequence: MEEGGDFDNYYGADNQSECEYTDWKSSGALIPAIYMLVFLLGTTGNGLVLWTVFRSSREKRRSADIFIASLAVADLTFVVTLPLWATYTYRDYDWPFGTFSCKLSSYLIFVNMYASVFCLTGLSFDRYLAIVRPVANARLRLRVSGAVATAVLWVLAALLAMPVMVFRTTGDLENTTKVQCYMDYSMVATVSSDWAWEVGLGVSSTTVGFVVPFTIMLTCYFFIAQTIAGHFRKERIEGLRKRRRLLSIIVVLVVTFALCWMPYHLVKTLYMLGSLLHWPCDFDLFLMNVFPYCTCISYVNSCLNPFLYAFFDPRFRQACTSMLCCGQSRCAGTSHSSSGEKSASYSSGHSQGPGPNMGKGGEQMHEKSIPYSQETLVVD
Nature of the experiment: FACS on HEK293/CRE-luc/MfAPLNR cells.

With QRPRLSHKGPMPFGGGGSGGGGSGGGGS-{VH of anti‑myc 9E10 antibody} (antibody, part only; not given: anti-myc antibody chains, part only, ends and bridges not checked) [Anti-myc 9E10 Nter VH fusion with (G4S)3 linker (Apelin fused to an irrelevant anti-myc antibody)], in experiment [1], the % Activation at 100 nM mAb (7.5 uM Forskolin), CRE-luc was determined as 53%; the % Activation at 100 nM mAb (10 uM Forskolin), CRE-luc turned out to be 37%; the EC50 [M] (7.5 uM Forskolin), CRE-luc turned out to be 1.1e-08 M; the EC50 [M] (10 uM Forskolin), CRE-luc was greater than 1e-07 M. Moreover, the % Activation at 500 nM antibody or Apelin-antibody fusion, PathHunter beta-Arrestin assay in experiment [2] was 6%. For the same molecule, the Binding Ratio of Geom. Mean to Unstained Cells in experiment [3] is 12 fold. Also, in experiment [4], the Binding Ratio of Geom. Mean to Unstained Cells worked out at 3 fold.
